{
  "source": "paper PMC6335420",
  "about": "“The cell cycle regulator GpsB functions as cytosolic adaptor for multiple cell wall enzymes” (Nature Communications, 2019)",
  "molecules": {"B1": {"name": "BsGpsB_(1-68)^Asp35Ala (domain or fragment, B. subtilis, UniProt P0CI74 1-68, looked up)", "chain": "MLADKVKLSAKEILEKEFKTGVRGYKQEDVDKFLAMIIKDYETFHQEIEELQQENLQLKKQLEEASKK", "notes": "GpsB, Bacillus subtilis, residues 1-68; source: E. coli, purified (Ni-NTA, thrombin, size exclusion)"}, "B2": {"name": "BsGpsB1-68^Asp35Ala: BsGpsB1-68 variant (protein)", "chain": "B1 chain", "modifications": "left off: His6, N-terminal, cleaved", "notes": "BsGpsB1-68 variant"}, "B3": {"name": "BsGpsB1-68^Asp31Ala: BsGpsB1-68 variant (protein)", "chain": "B1 chain with D31A, A35D", "modifications": "left off: His6, N-terminal, cleaved", "notes": "BsGpsB1-68 variant"}, "B4": {"name": "BsGpsB^Tyr25Phe: BsGpsB1-68 variant (protein)", "chain": "B1 chain with Y25F, A35D", "modifications": "left off: His6, end not stated, cleaved", "notes": "BsGpsB1-68 variant"}, "B5": {"name": "BsGpsB1-68^Glu17Ala: BsGpsB1-68 variant (protein)", "chain": "B1 chain with E17A, A35D", "modifications": "left off: His6, N-terminal, cleaved", "notes": "BsGpsB1-68 variant"}, "B6": {"name": "BsGpsB_(1-68)^Glu17Ala (domain or fragment, B. subtilis, UniProt P0CI74 1-68, looked up)", "chain": "B1 chain with E17A, A35D", "notes": "as for B1"}},
  "key": {"[1]": {"biological_target": "T1, SpGpsB1-63 (Streptococcus pneumoniae, UniProt Q8DR57)", "T1 construct": "The SpGpsB1-63 expression construct (pET28SpGpsB1-63) was prepared by PCR amplification of gpsB; His6 (N, cleaved yes); made in house; host or cells: E. coli BL21(DE3)", "T1 sequence (Q8DR57 1-63)": "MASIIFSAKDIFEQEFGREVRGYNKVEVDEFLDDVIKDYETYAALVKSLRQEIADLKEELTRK", "test": "Fluorescence polarisation binding to SpGpsB1-63", "conditions": "FP", "description": "(§1) 75 the BsGpsB5-64:BsPBP11-17 complex."}, "[2]": {"biological_target": "T2, BsGpsB1-68Lys32Glu (Bacillus subtilis, UniProt P0CI74, K32E)", "T2 construct": "His6 (N, cleaved yes); made in house; host or cells: E. coli BL21(DE3)", "T2 sequence (P0CI74 1-68 K32E)": "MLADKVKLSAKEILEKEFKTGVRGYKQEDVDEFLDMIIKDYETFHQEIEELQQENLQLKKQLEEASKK", "test": "Fluorescence polarisation binding to BsGpsB1-68Lys32Glu", "conditions": "FP, relative to wild-type LmPBPA1 peptide", "description": "as §1"}, "[3]": {"biological_target": "T3, BsPBP1_(1-32), TAMRA-labelled at position 16 (B. subtilis, UniProt P39793 1-32, Ser16Cys, TAMRA (maleimide) at position 16)", "T3 construct": "PBP1, Bacillus subtilis, residues 1-32; also called BsPBPA1_(1-32); BsPBP1A_(1-32); source: E. coli, His-tagged MBP fusion purified (Ni-NTA), labelled, TEV-cleaved, ultrafiltration", "T3 peptide (looked up)": "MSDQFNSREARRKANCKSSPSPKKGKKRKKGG", "test": "fluorescence polarisation; GpsB protein titrated into fluorescently labelled peptide; 10 mM Tris.HCl pH 8.0, 250 mM NaCl, 0.1% reduced Triton X-100; fit to a 1:1 interaction model", "conditions": "both partners purified"}, "[4]": {"test": "Circular dichroism thermal unfolding of BsGpsB1-68 variants", "format": "physicochemical", "conditions": "CD at 222 nm vs temperature, 4.5 μM protein, 20 mM sodium phosphate (pH 7.8) 150 mM NaCl, 1 °C/min", "protocol": "CD spectra were recorded on a JASCO J-810 spectropolarimeter with a PTC-4235 Peltier temperature controller using 1 mm path length quartz cuvettes. For full wavelength scans a scan speed of 10 nm^−1min^−1 and a response time of 4 s were used, the final spectra were the average of at least four measurements. BsPBP1_1-32 CD spectra were recorded at 4 °C in a buffer of 20 mM sodium phosphate, pH 7.3 at a peptide concentration of 25 μM. Peptide helical contents were estimated from molar ellipticities at 222 nm using the equation helix = [θ]222 nm / (39,500(1–2.57/n))[78] where n is the number of residues in the peptide. LmPBPA1_1-15 CD spectra were analysed at 40 μM in 20 mM sodium phosphate buffer, pH 7.8, for samples containing 0, 40 and 60% trifluoroethanol (TFE). For samples containing 80% TFE, 5 mM sodium phosphate buffer, pH 7.8, was used. The CD spectra of BsGpsB1-68 proteins were measured at a concentration of 4.5 μM in a buffer of 20 mM sodium phosphate (pH 7.8) 150 mM NaCl. For thermal melt experiments, a response time of 8 s and scan rate of 1 °C^−1min^−1 were used. All thermal melts were reversible as CD spectra recorded before and after the melts in the wavelength range 200–240 nm could be superimposed."}},
  "note": "Substitutions are numbered along the chain they refer to. Residues, ends and D or L forms follow the SMILES beside them. *: point of attachment. Fluorescein(5-Mal) = O=C1OC2(c3ccc(O)cc3Oc3cc(O)ccc32)c2ccc(N3C(=O)CC(*)C3=O)cc21; X1 = CN(C)c1ccc2c(-c3ccc(N4C(=O)CC(*)C4=O)cc3C(=O)[O-])c3ccc(=[N+](C)C)cc-3oc2c1; 5FAM = O=C1OC2(c3ccc(O)cc3Oc3cc(O)ccc32)c2ccc(C(=O)*)cc21",
  "data": [
    {"molecule": "CC[C@H](C)[C@H](NC(=O)[C@@H]1CCCN1C(=O)[C@H](CSC1CC(=O)N(c2ccc(-c3c4ccc(=[N+](C)C)cc-4oc4cc(N(C)C)ccc34)c(C(=O)[O-])c2)C1=O)NC(=O)[C@@H](NC(=O)[C@H](CCC(N)=O)NC(=O)[C@H](C)NC(=O)[C@H](CC(C)C)NC(=O)[C@H](CCCCN)NC(=O)[C@H](CCCCN)NC(=O)[C@H](CCCNC(=N)N)NC(=O)[C@H](CC(=O)O)NC(=O)[C@H](CO)NC(=O)[C@H](CCCNC(=N)N)NC(=O)[C@H](CO)NC(=O)[C@H](CCCCN)NC(=O)[C@H](CCCNC(=N)N)NC(=O)[C@H](CC(C)C)NC(=O)[C@@H](NC(=O)[C@@H](NC(=O)[C@H](CO)NC(=O)[C@H](CC(=O)O)NC(=O)[C@H](CO)NC(=O)[C@H](CC(=O)O)NC(=O)[C@H](CCSC)NC(=O)[C@H](CO)NC(=O)CN)[C@@H](C)O)[C@@H](C)CC)C(C)C)C(=O)O", "note": "(stereo partly shown) [TAMRA-SpPBP2a23-45 Arg31Lys] (H-GSMDSDSTILRKSRSDRKKLAQVC(X1)PI-OH)", "values": [
      {"measurement": "reduction in affinity for SpGpsB1-63", "setting": "[1]; relative to wild-type SpPBP2a23-45", "value": 2, "unit": "fold"}
    ]},
    {"molecule": "CC[C@H](C)[C@H](NC(=O)[C@H](CC(C)C)NC(=O)[C@H](CCCNC(=N)N)NC(=O)[C@H](CCSC)NC(=O)CNC(=O)c1ccc2c(c1)C(=O)OC21c2ccc(O)cc2Oc2cc(O)ccc21)C(=O)N[C@@H](CS)C(=O)N[C@@H](CCSC)C(=O)N[C@@H](CCCNC(=N)N)C(=O)N[C@@H](CCCCN)C(=O)N[C@@H](Cc1ccccc1)C(=O)N[C@@H](CC(N)=O)C(=O)N[C@@H](CO)C(=O)N[C@@H](Cc1c[nH]cn1)C(=O)N[C@@H](CO)C(=O)N[C@H](C(=O)N1CCC[C@H]1C(=O)N[C@H](C(=O)N[C@@H](CCCNC(=N)N)C(=O)O)[C@@H](C)CC)[C@@H](C)CC", "note": "[Fluorescein-SpPBP2b1-17] (5FAM-GMRLICMRKFNSHSIPIR-OH; N-terminus and C-terminus assumed)", "values": [
      {"measurement": "binding to SpGpsB1-63 (in words)", "setting": "[1]", "value": "not"}
    ]},
    {"molecule": "CSCC[C@H](NC(=O)[C@H](CO)NC(=O)CN)C(=O)N[C@@H](C)C(=O)N[C@@H](CC(=O)O)C(=O)N[C@@H](CCCCN)C(=O)N1CCC[C@H]1C(=O)N[C@@H](CCC(N)=O)C(=O)N[C@H](C(=O)N[C@@H](C)C(=O)N[C@@H](CO)C(=O)N[C@@H](CCC(N)=O)C(=O)N[C@@H](Cc1ccc(O)cc1)C(=O)N[C@@H](CCCNC(=N)N)C(=O)N[C@@H](CC(N)=O)C(=O)N[C@@H](CCCCN)C(=O)N[C@@H](CCC(N)=O)C(=O)N[C@@H](CCCNC(=N)N)C(=O)NCC(=O)NCC(=O)N[C@@H](CSC1CC(=O)N(c2ccc3c(c2)C(=O)OC32c3ccc(O)cc3Oc3cc(O)ccc32)C1=O)C(=O)N[C@@H](CCCCN)C(=O)O)[C@@H](C)O", "note": "(stereo partly shown) [Fluorescein-LmPBPA11-20 Arg8AlaSer16Arg] (H-GSMADKPQTASQYRNKQRGGC(Fluorescein(5-Mal))K-OH; N-terminus and C-terminus assumed)", "values": [
      {"measurement": "reduction in affinity for BsGpsB1-68Lys32Glu", "setting": "[2]", "value": "at least 10 fold"}
    ]},
    {"molecule": "CC[C@H](C)[C@H](NC(=O)[C@@H](NC(=O)[C@H](CCCNC(=N)N)NC(=O)[C@H](CCCCN)NC(=O)[C@@H](NC(=O)[C@H](Cc1c[nH]c2ccccc12)NC(=O)[C@H](CCC(=O)O)NC(=O)[C@H](CCSC)NC(=O)CNC(=O)[C@H](CO)NC(=O)CNC(=O)[C@H](CO)NC(=O)CN)[C@@H](C)O)C(C)C)C(=O)N[C@@H](CCCNC(=N)N)C(=O)N[C@@H](Cc1ccc(O)cc1)C(=O)N[C@@H](C)C(=O)N[C@H](C(=O)N[C@@H](CCCCN)C(=O)N[C@@H](CC(N)=O)C(=O)N[C@@H](CCCNC(=N)N)C(=O)N[C@@H](CCCCN)C(=O)N[C@@H](CO)C(=O)N1CCC[C@H]1C(=O)N[C@@H](C)C(=O)N[C@@H](CCC(=O)O)C(=O)N[C@@H](CC(N)=O)C(=O)N[C@@H](CCCNC(=N)N)C(=O)N[C@@H](CCCNC(=N)N)C(=O)N[C@@H](CCCNC(=N)N)C(=O)N[C@H](C(=O)NCC(=O)N[C@@H](CCCCN)C(=O)N[C@@H](CO)C(=O)N[C@@H](CC(C)C)C(=O)N[C@@H](CSC1CC(=O)N(c2ccc3c(c2)C(=O)OC32c3ccc(O)cc3Oc3cc(O)ccc32)C1=O)C(=O)N[C@@H](CO)C(=O)O)C(C)C)[C@@H](C)O", "note": "(stereo partly shown) [Fluorescein-SpPBP2x1-29] (H-GSGSGMEWTKRVIRYATKNRKSPAENRRRVGKSLC(Fluorescein(5-Mal))S-OH; N-terminus and C-terminus assumed)", "values": [
      {"measurement": "binding to SpGpsB1-63 (in words)", "setting": "[1]", "value": "interacts"}
    ]},
    {"molecule": "B1", "values": [
      {"measurement": "fold reduction in affinity against wild type", "setting": "[3]", "value": "> 8", "unit": "fold"}
    ]},
    {"molecule": "B2", "values": [
      {"measurement": "impact of mutation on protein stability", "setting": "[4]", "value": "little impact on protein stability"}
    ]},
    {"molecule": "B3", "values": [
      {"measurement": "impact of mutation on protein stability", "setting": "[4]", "value": "little impact on protein stability"}
    ]},
    {"molecule": "B4", "values": [
      {"measurement": "impact of mutation on protein stability", "setting": "[4]", "value": "little impact on protein stability"}
    ]},
    {"molecule": "B5", "values": [
      {"measurement": "impact of mutation on protein stability", "setting": "[4]", "value": "little impact on protein stability"}
    ]},
    {"molecule": "B6", "values": [
      {"measurement": "fold reduction in affinity against wild type", "setting": "[3]", "value": "> 8", "unit": "fold"}
    ]}
  ]
}
